The values below come from publication PMC4989918.

Assay [1] concerns the target Mb(BgaD_L23) displayed on yeast. The experiment in a line: flow cytometry on cells.
Assay [2] addresses Mb(BgaD_L19) displayed on yeast. Nature of the assay: flow cytometry on cells.
In assay [3] the target is Mb(BgaD_L14), purified monobody. The experiment in a line: bead-based binding assay read by flow cytometry.

B1: BgaD-D, β-galactosidase from Bacillus circulans ATCC 31382 (residues 36–847), biotinylated (enzyme)
chain: GNSVSYDGERRVNFNENWRFQRETNGSIAGAQNPGFDDSSWRKLNLPHDWSIELDFNKNSLATHEGGYLDGGIGWYRKTFTIPESMKGKRISLDFDGVYMNSTTYLNGEVLGTYPFGYNAFSYDISDKLYKDGRANVLVVKVNNTQPSSRWYSGSGIYRNVYLTVTDPIHVARYGTFVTTPNLEKSIKEDRADVNIKTKISNDAAEAKQVKIKSTIYDGAGNTVQTVETEEKTAAAGTVTPFEQNTVIKQPKLWSIDKPYRYNLVTEVIVGGQTVDTYETKFGVRYFKFDENEGFSLNGEYMKLHGVSMHHDLGALGAATNARGVERQMQIMKDMGVNAIRVTHNPASPELLEAANKLGLFIIEEAFDSWAQSKKPYDYGRFFNAWAEHDIKEMVDRGKNEPAIIMWSIGNEIYDTTNAAGVETARNLVGWVKEIDTTRPTTIGEDKTRGDKVNVTPINSYIKEIFNIVDVVGLNYSENNYDGYHKQNPSWKLYGSETSSATRSRGVYTHPYQYNQSTKYADLQQSSYDNDYVGWGRTAEDAWKYDRDLKHIAGQFIWTGFDYIGEPTPYYNSYPAKSSYFGAVDTAGFPKDIFYYYQSQWKKEPMVHLLPHWNWKEGEKVRVLAYTNASKVELVLNGESLGEKNYDNKQTSWGAPYKETKDGKTYLEWAVPFKPGKLEAVAKDENGKVIARDQVVTAGEPASVRLTADRKVVKADGTDLSFITADIVDSKGIVVPDADHLITFNVTGQGELAGVDNGNASSVERYKDNKRKAFSGKALAIVQSSKLSGKITVHASVAGLSSDSTSVFTVTP
modifications: biotin on the biotin-acceptor tag (in vivo biotinylation)
B1: the Kd came out at 12 nM in assay [1], 600 nM in assay [2] and 31 nM in assay [3].
